± gives the uncertainty stated by the source.
Assay: self-splicing fitness, log relative to wild type (ln ratio); higher = more splicing; Tetrahymena group I intron in knt gene, E. coli kanamycin selection, DiMSum; sequences stand for … in CUCUCU…GGAGGGAAAAGUUAUCAGGCAUGCACCUGGUAGCUAGUCUUUAAACCAAUAGAUUGCAUCGGUUUAAAAGGCAAGACCGUCAAAUUGCGGGAAAGGGGUCAACAGCCGUUCAGUACCAAGUCUCAGGGGAAACUUUGAGAUGGCCUUGCAAAGGGUAUGGUAAUAAGCUGACGGACAUGGUCCUAACCACGCAGCCAAGUCCUAAGUCAACAGAUCUUCUGUUGAUAUGGAUGCAGUUCACAGACUAAAUGUCGGUCGGGGAAGAUGUAUUCUUCUCAUAAGAUAUAGUCGGACCUCUCCUUAAUGGGAGCUAGCGGAUGAAGUGAUGCAACACUGGAGCCGCUGGGAACUAAUUUGUAUGCGAAAGUAUAUUGAUUAGUUUUGGAGUACUCGUGGUCG
Method in brief: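 Six replicate transformations of E. coli BL21(DE3) with a pET-22b(+) library were grown overnight at 37°C or 30°C. The library randomised all eight P1ex-region intron nucleotides, the intron lying in the knt kanamycin-resistance gene, and plates were LB agar with or without 25 μg/mL kanamycin plus 100 μg/mL carbenicillin, 50 μM IPTG and 0.2% rhamnose. Pooled colonies were amplicon-sequenced on an Illumina HiSeq 2500, and fitness is the DiMSum error-weighted combination of wild-type-normalised replicate fold changes, kanamycin versus none.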

Sequence	self-splicing fitness (ln) (30 °C)	self-splicing fitness (ln) (37 °C)
GGCAAGCAAUAUUACGGGCA	-0.0236 ± 0.092	0.138 ± 0.1
AUGAAGCAAUAUUACGCUCU	-0.29 ± 0.15	0.111 ± 0.18
CUUUAGCAAUAUUACGAUGC	-2.95 ± 0.24	–
GUGAAGCAAUAUUACGCGUA	-0.298 ± 0.14	0.0699 ± 0.14
CUUGAGCAAUAUUACGGAGC	–	-1.42 ± 0.29
ACCUAGCAAUAUUACGAUUG	-3.2 ± 0.21	-2.28 ± 0.25
AAGGAGCAAUAUUACGCUCC	–	-1.7 ± 0.47
AGGCAGCAAUAUUACGCACA	-0.332 ± 0.092	0.275 ± 0.11
CUCUAGCAAUAUUACGCUCU	-3.22 ± 0.19	-3.77 ± 0.31
UACGAGCAAUAUUACGUGGG	-3.25 ± 0.14	-2.88 ± 0.19
CGGCAGCAAUAUUACGGGGG	-3 ± 0.13	-1.86 ± 0.16
UCCUAGCAAUAUUACGCUCC	-3.73 ± 0.33	-0.747 ± 0.24
CGUAAGCAAUAUUACGUACC	-1.94 ± 0.21	-1.76 ± 0.24
AUAGAGCAAUAUUACGAUCA	-0.545 ± 0.098	-0.894 ± 0.15
GCAAAGCAAUAUUACGUUAA	-1.83 ± 0.14	-1.45 ± 0.14
UAAGAGCAAUAUUACGCGUA	-1.55 ± 0.29	0.00439 ± 0.15
CGGGAGCAAUAUUACGCUCA	-4.3 ± 0.46	-0.0948 ± 0.37
AGGAAGCAAUAUUACGGGUG	-2.14 ± 0.091	-1.98 ± 0.11
UACAAGCAAUAUUACGUAUU	-4.29 ± 0.19	-2.32 ± 0.13

Sequence	self-splicing fitness (ln) (30 °C)	self-splicing fitness (ln) (37 °C)
AAUAAGCAAUAUUACGUUGU	-3.22 ± 0.14	-2.51 ± 0.19
CGUAAGCAAUAUUACGUCUA	-2.78 ± 0.28	-2.03 ± 0.18
AGCCAGCAAUAUUACGUAUG	-2.08 ± 0.089	-3.2 ± 0.19
AGCGAGCAAUAUUACGCAUG	-3.33 ± 0.22	-1.48 ± 0.18
GAUAAGCAAUAUUACGCAGG	-1.69 ± 0.13	-2.95 ± 0.21
UAGGAGCAAUAUUACGCGAU	-3.84 ± 0.47	-2.68 ± 0.34
AUUCAGCAAUAUUACGGACG	-0.626 ± 0.08	-0.168 ± 0.098
UCGCAGCAAUAUUACGAGAA	-1.41 ± 0.34	-0.949 ± 0.21
ACGCAGCAAUAUUACGUACU	-1.12 ± 0.077	-0.434 ± 0.088
CACGAGCAAUAUUACGAUGC	-3.47 ± 0.37	-2.74 ± 0.29
UUCAAGCAAUAUUACGUCCA	-1.12 ± 0.11	-0.803 ± 0.098
CUAUAGCAAUAUUACGUAUA	-3.27 ± 0.42	-2.56 ± 0.37
ACCCAGCAAUAUUACGGCAU	-0.483 ± 0.042	0.0474 ± 0.058
AACAAGCAAUAUUACGGUUG	-2.83 ± 0.1	-1.64 ± 0.084
CGACAGCAAUAUUACGUGCC	-1.11 ± 0.12	-0.684 ± 0.14
CUACAGCAAUAUUACGGGUA	-3.25 ± 0.19	-2.05 ± 0.12
UGGGAGCAAUAUUACGGACA	-1.7 ± 0.14	-0.535 ± 0.13
UUACAGCAAUAUUACGCCGG	-0.726 ± 0.094	-0.416 ± 0.13
UUUCAGCAAUAUUACGAGUU	-2.96 ± 0.25	-2.06 ± 0.19
